From a protein production outcome set (Wang et al. 2014) come the findings set out here.

The nature of the data set: label from the status in PepcDB records.
Regarding “MIRTAKLALVAAALSTTALSPLALAAPAPAQPAATASIAVPPIVYQQRVLANGMKVFTSRDTSTPNVSVQVWYGVGSKDDPQGRSGFAHLFEHLMFKATRNMPNETVDRLTEDVGGFNNASTWDDFTNYYEVVPANHLERLIWAEADRLKSLVIDEAVFASERDVVKEELRQRVLADPYGRFFALSIPQQSFAVHPYQRPGIGSIEELDAATVDDVRAFHRTYYRPDNAALIIVGNFDQTKLDAMIDKYFGSLTTPAGAIPKVTAVEPARTGPKTVNTYGPNVPLPALAITWLAPAAADKDAPALAVLDAILTAGKSSRLYDSLVYDQKIAQSVFSSAPNNAQPGLFYVGAIMAGGKTVAQGEAALRAQVARVRDGLVTPAELAEAKAGLLADAVRRREEIDGRGFAIGYALQTEGDAAAANSSLAKLQAVTAADIQRVARQYLADDRRTVINYLPEKDRPAGEKDATPPIPKVASVKYDGPITTLAPEAEREKPPAVAAPVPAVMPTPAEKTLANGLRVIVAKSSELPLITSTLTVKGGASSDPAGLAGTSSLTSELLTEGTATRSATQVARETEALGANLAAGSGWEAASLTLSVTANNADPAMAIMADVAQNPAFKTEELDRVRAETLDGLSVAFQRPGSLASFATSPVLYAGSAYGHVAGGTPGSLPKIKREDLAKTHAAYWRPDNAVLVVTGNLSPEAGFALAEKAFGGWKKPATPPPAPPAAPTGYQPRNVVIDLPGTGQAAVVLAKPAITRADPSYYQGVVANTVLGVGFSSRLNQEIRIKRGLSYGAGSSLTPQGQFGGFSARVQTKNPSAGEVISLTRAELSRLANEPASVGELAARKSVLVGGFGRDLGTSEGLAGILGNLAVYGVPLTEIQSYAAKVEAVTPEQVQAFAKAKLDPTQMSVIVAGDAKAMGEALAKVAPNATVIPAAKLDLDAPGLTQ”, the protein production result is listed as “failed”. On to “MIRTIQDLLNERVAIGKIVNTHGLKGEVKFFPYTNSEEIVKNLSSVVLYNSEKKAFYNLTVESVRRMNKLFLIRFKSIDTIEAAERIKGCEVFIKYEELPKLSEDEYYFYEILDCDVFYESGENVGKVVDIIETGSNDVLVVRKKKKETLIPMTKDCIVEIDKGAKKIIAKEMEWILEHHHHHH”, for which the protein production entry was “failed”. For “MISDNFFTEHMTIVIAVAIVLLLIIILLTCWKRVPADKALVITGLKKRVLTGKGGIQVPFLETSCIISLEAVSMTTDITEAPSKQGIFVDIAGTAVVKVDNNPEKVLIAVEQFCSGNADRTTQNIKTVVEQILEGKLRGIVSTLTVEQINEDRVAFENSIEDSITRELDNMGLRLLSYTVLKIATQGGYLENRAIPQIAQSKADADIASAERARDTEVKTAAAVREGQKAKLEAEAEIAQSDRDKTIRMEQYRAEQDKIKANADVSYKLQEIENNKIVADRNVELAKKEAQVVEEQLVASVKKPADAKKYETEVQAEANKIKSIKEAEARAQALKIEAQARADAKLLEAKAEAEAIRAQGEAEAEALKAKGIAEAEAKDRLAEAMEKYGEAAMMSMVVERLPEIMAQIAKPMEQIDKITVIDNGSGDGGSKVSKIVSDVAANGFEVLKDLTGADLGEVVRTIANKNSNNKPKTK” the value was “failed”; for “MISIPVAQQQKLPRLVLPRVYGFPPNRETLGGTAYLIVENDGNTLIDSPPWTDGSQHWLREQGGVKRLILTHRGAIARVRAIQDTFDCEVMIHAQEAYLLPQVTVTPFNHHLAIGETLEILWTPGHSPGSACVYWSCQGGVLFTGRHLLPTPTGELAPIKTATTFHWPRQLRSVEALKAFCRQKSLSYLCPGANMGFLRGTLAIANAQAVLQGLSVDNLLCDKFLEHHHHHH”, “failed”. For the sequence “MISNALKQGNLSPELEEKLVCMQKQQENANSTNEWETCSRGSVNEEALTPSRQTDDTEWKIRTSLRRPNAMTTSSQFNRILKKNRSKNDEVAELGEQKQSQLERHKELLKKNILRKRSLLERNLQSEIHEDVKTKVQRHVRPLSNASPDEQSENERSGEPNLDFKR”, the protein production result is given as “failed”.

For “MISPERLRVYRFFASLTDEQLKDIALISEEKSFPTGSVIFKENSKADNLMLLLEGGVELFYSNGGAGSAANSTVCSVVPGAIFGVSSLIKPYHYTSSARATKPVRVVDINGARLREMSENNQALGQVLMNNVAAAVLARLH”, the protein production entry is reported as “not failed”.

For the sequence “MISTFALFWALCIVCIINMARYYSSLRVLLMILRDCDPLLYQYVDGGGFFTSHGQPSKQIRLVGYIYAQRYLDHHDPEFIRRCERVRGQFLLTTALCGLIVISLIAMMMWY”, the protein production entry is on record as “failed”. To “MISVAHSPDADDIFMYYAIKFGWIDCPIKNKAFHNIALDIETLNQEALKNTYDVSAISFGLYPKIANDYALLPTATSFGNGYGPKLVKKKGVKLKKDFRVALSGEHTTNALLFKIYYKHARITYMNFLDIEKAVLEEKVHAGVLIHESILDFHNELEVEKELWDVWKELIEVDLPLPLGGMAIRRSIPLYRAILIKKALIKAVEVALKHQNLLSGMLLERSLIRVNKERLRTYLSLYANETSTRLSEIQILAIDKLFELGYQHGFYASLLKTKDCLLTDEYLKYRFS” belongs “failed”; to “MITFIGHVSKDVNVVDGKREIAYGGGVVMGAITSSLLGVKTKVITKCTREDVSKFSFLRDNGVEVVFLKSPRTTSIENRYGSDPDTRESFLISAADPFTESDLAFIEGEAVHINPLWYGEFPEDLIPVLRRKVMFLSADAQGFVRVPENEKLVYRDWEMKEKYLKYLDLFKVDSREAETLTGTNDLRESCRIIRSFGAKIILATHASGVIVFDGNFYEASFRSWSLEGRTGRGDTCTAAFLVGFVFKKMSIEKATKFAAAVTSVKMRHPGPLRREDLEAISGDQYF”, “not failed”; to “MITGTLINALTVVFASLLGLAIGSRLSESIRGAIINVLGLAVLLIGISMALETKNVLIPTLSVVAGTAVGEVMGIEKALQSFGDRVERRLGKGRFSEGFVAATLLYCVGPMAILGPIQEGLTGDMSVLMAKSLLDGVASVALASALGIGVAFSSISILVYQGFFALLAAQLSSVVTERIIAEFTSTGGLLIMGIGINLLELRKLRVGNMLPALIFAPLIVAVLQLTGL”, “failed”. For “MITILIFINIVKVVLFLFFLMTGTKIISGKMADEFKRFGLPSFFNFLTGAFEIVGAIGMLIGIWISTVALWAGLLLGGTMLAAALTLIVLARDPFKKAIPALVLFVLSLGISLYHIF” the value was “failed”; for “MITLQKAEASDLEKIIAIQRASFKAVYEKYHDQYDPYVEEVEQIRWKLVERPDCFYHFVLVDETIVGFLRLVIKDEEKRAWLGTAAILPQYQGQGYGSAAMALLEKTYPKLTKWDLCTIAQEKLMVSFYEKCGYHSTHTEPEQEGMDMVYMTKKIE”, “failed”; for “MITLTTDFGLKGPYVGEMKVAMLRINPNAKIVDVTHSVTRHSILEGSFVMEQVVKYSPKGTVHVGVIDPGVGTERRAIVIEGDQYLVVPDNGLATLPLKHIKVKSVYEIIPDKIRKFTGWEISSTFHGRDIFGPAGALIEKGIHPEEFGREIPVDSIVKLNVEPRKEGDVWILKVIYIDDFGNVILNLENYEKPRTVELLDFNLRLPYLETYGLVEKGEMLALPGSHDYLEIAVNMGSAAERLNVKVGDELRVRLL”, “not failed”.

On to “MITRSEIFEYAEKTFGAKPDYPFKTYPHYAILRHLDDQKWFGLVMNVPKDKLGLEGEGDVDVIDIKCHPDKVHDLKIKAGFLPAYHMNKEHWLTAVLDGSVTKEEVFSLLAESYELTK”, for which the protein production entry is “failed”.

Regarding “MITYHSNALQSERQMYVWTPPGYTGMGEPLPVLYFYHGFGDTGRSAIDQGRIPQIMDNLLAEGKIKPMLVVIPDTETDAKGIIPEDFVPQERRKVFYPLNAKAADRELMNDIIPLISKRFSVRKDADGRALAGLSQGGYQALVSGMNHLESFGWLATFSGVTTTTVPDEGVAARLNDPAAINQQLRNFTVVVGDKDVVTGKDIAGLKTELEQKKIKFDYQEYPGLNHEMDVWRPAYAAFVQKFKIRHLEHHHHHH”, the protein production entry is reported as “failed”. To “MIVAAPEQYSRDRDWQQAIAAGELTLALQPQMGLRNRQLRGFEVQLRWQHPQQGTLLASQLMEHLEQSQHRETVGRWFLDQAGQLLSQWRNSAQFSGLFALSLLPQQWKSPSFIHDLRSLLETYQIPPEQLELDLPAQSLAESAAESWDWVYAVRDLGIGIGLADFGSRSIGLYDLRNLPLTTLKLERRFVRGLPDDANDRAIVRGVVAMSQALKVRIVARGVDTVDQAKFLARAECDAMQGLAYSAPLEHHHHHH” belongs “failed”. For “MIVFVRFNSSYGFPVEVDSDTSIFQLKEVVAKRQGVPADQLRVIFAGKELQNHLTVQNCDLEQQSIVHIVQRPQRKSHETNASGGDKPQSTPEGSIWEPRSLTRVDLSSHILPADSVGLAVILDTDSKSDSEAARGPAAKPTYHSFFVYCKGPCHKVQPGKLRVQCGTCRQATLTLAQGPSCWDDVLIPNRMSGECQSPDCPGTRAEFFFKCGAHPTSDKDTSVALNLITNNSRSIPCIACTDVRNPVLVFQCNHRHVICLDCFHLYCVTRLNDRQFVHDAQLGYSLPCVAGCPNSLIKELHHFRILGEEQYNRYQQYGAEECVLQMGGVLCPRPGCGAGLLPEQGQRKVTCEGGNGLGCGFVFCRDCKEAYHEGECDSMFEASGATSQAYRVDQRAAEQARWEEASKETIKKTTKPCPRCNVPIEKNGGCMHMKCPQPQCKLEWCWNCGCEWNRACMGDHWFDV” the value was “failed”. For “MIVFYDSWCPMCTAVAERTKKLDKKGKVKFVSFRDEDVVEKYELSQELQSKMEQRLYIFKNNKWYDGIHSIHVLAKSIPSYWFAVPFIKLSIVLGFGNKVYDYIANNRKLVPVGHCRGGVCEIPTKK” the value was “failed”; for “MIVGGRRAPLPRFFSRPVEFAALSLDPEKDPIDVFDDAYFFVHAAFSHVPGKYRGGEGDDPKSFHRLNLDGTVRLFEAAKRAGTRRCVFLSSRAAYGDYPPGIELVETMLPKPETLYGQIKLDAEGALTHLSAPGFAGVSLRATGVYGDLTPGKWDDLIADYLAGRPVAARAGTEVHGRDLGRAVRLMLETESTRISGEVFNISDITVDTQDILAPIRRETSGPHALPPPADKAALNPMSTAKIRALGWMPGGTPLFEETMRRLAAALPVSPRHRSAQDRQASSSGGRQPQTGTT”, “failed”. For “MIVGRDGVGVVEHAEQGPRIAVAVVTMGNRPAEVDALLASVAKQDLPPARIVIVGNGCPLPEFARRLDLPGEVTGIEVDENLGCPGGRNVALAKLREFGDVDVVVELDDDGLLVDADVLRRVRDLYAADPRLGIVGFRIADENGETQRRHVPRVGKSDPLRGGPVTGFLGGGHALSMAMLARTGDWPAEFFFAHEETDLAWRATDAGWTILYAPELLLQHPKTSPARHAIYHRVTARNRVWLARRRLPLPLIPVHLGIWIAVTLVRTRSAGGLRAWFGGFMEGVRTSGGERRPMRWRTVWRLTRLGRPPVILEHHHHHH”, the protein production result is “failed”. For the sequence “MIYPDETMLYAPVEWHDCSEGYTDIRYEKSTDGIAKITINRPQVRNAFRPLTVKEMIQALADARYDDNVGVIILTGEGDKAFCAGGDQKVRGDYGGYQDDSGVHHLNVLDFQRQIRTCPKPVVAMVAGYSIGGGHVLHMMCDLTIAAENAIFGQTGPKVGSFDGGWGASYMARIVGQKKAREIWFLCRQYDAQQALDMGLVNTVVPLADLEKETVRWCREMLQNSPMALRCLKAALNADCDGQAGLQELAGNATMLFYMTEEGQEGRNAFNQKRQPDFSKFKRNP”, the protein production result is on record as “not failed”.

“MIYWLSLASAAFIGLAALVWKMSAIARENRVLKAEFSLGRLKKELNVFFISDIHRRTVSEDIICEVKERGVQLVIIGGDLAEGGVPYTRIEENIKRLSSLGKTYFVWGNNDYEVDQERLLEIFKTYGVTPLRNASVLHDHQGQTVNICGVDDIRLELDDYPAALGGVQPGFPTVLVSHNPEIHHQIQEADGIDLILSGHTHGGQIRFGRFGLCEIGGTGTVFKAPYLISNGYGTSKLPLRLGARPETHLINLVPGPRMEGN”: the protein production result was “failed”.
